{"source": "patent US9725518B2", "about": "“Antibodies that bind to Jagged 1” (Cancer Research Technology Limited, priority 2013, dated 2017)", "molecules": {"B1": {"name": "J1-65D variant 4: humanised/de-immunised J1-65D: J1-65D_VL_1 + J1-65D_VH_4 (antibody, V domains shown)", "VH": "QVQLVQSGAEVKKPGSSVKVSCKASGYTFTDYEMHWVRQAPGQGLEWMGAIQPGGGGTAYAQKFQGRVTITADKSTSTAYMELSSLRSEDTAVYYCTRRGYDDYPFAYWGQGTLVTVSSASTKGP", "VL": "DIQMTQSPSSLSASVGDRVTITCRASGNIHNYLAWYQQKPGKAPKLLIYNAKTLADDVPSRFSGSGSGTDYTLTISSLQPEDFATYYCQHFWSAPWTFGGGTKLEIKRT"}, "B2": {"name": "J1-65D variant 5: humanised/de-immunised J1-65D: J1-65D_VL_2 + J1-65D_VH_1 (antibody, V domains shown)", "VH": "B1 VH with V11L, A61N, Q65K, I70L", "VL": "B1 VL with D57A"}, "B3": {"name": "J1-65D variant 8: humanised/de-immunised J1-65D: J1-65D_VL_2 + J1-65D_VH_4 (antibody, V domains shown)", "VH": "B1 VH", "VL": "B1 VL with D57A"}, "B4": {"name": "J1-65D variant 9: humanised/de-immunised J1-65D: J1-65D_VL_3 + J1-65D_VH_1 (antibody, V domains shown)", "VH": "B1 VH with V11L, A61N, Q65K, I70L", "VL": "B1 VL with D57A, G100Q"}, "B5": {"name": "J1-183D variant 15: humanised/de-immunised J1-183D: J1-183D_VL_4 + J1-183D_VH_3 (antibody, V domains shown)", "VH": "QVQLVQSGAELKKPGASVKVSCKVSGYAFTDYAIHWVRQAPGQGLEWMGIINTYYGDSKYAQKFQGRVTMTVDTSTSTAYMELSSLRSEDTAVYYCARGYDGFAYWGQGTLVTVSSASTKGP", "VL": "DIQMTQSPSSLSASVGDRVTITCRTSENIYSYLTWYQQKPGKAPKLLIYHAKILDSGVPSRFSGSGSGTDFTLTISSLQPEDFATYYCQHHYDIPWTFGGGTKLEIKRT"}, "B6": {"name": "J1-183D variant 12: humanised/de-immunised J1-183D: J1-183D_VL_3 + J1-183D_VH_4 (antibody, V domains shown)", "VH": "B5 VH with L11V, V24A, A28T", "VL": "B5 VL with H50N"}}, "note": "Positions count from the first letter of the chain named.", "data": [{"system": "not listed separately", "experiment": "Soluble aggregates of transiently expressed antibodies", "type": "physicochemical", "settings": "Protein A purified antibody", "text": "The protein yield of these antibodies, their levels of soluble aggregates and their binding affinity to the immunogen (J1-DE3) are illustrated in (Table 6).", "units": {"% soluble aggregate": "%"}, "values": [{"molecule": "B1", "% soluble aggregate": 0}, {"molecule": "B2", "% soluble aggregate": 0}, {"molecule": "B3", "% soluble aggregate": 0}, {"molecule": "B4", "% soluble aggregate": 0}, {"molecule": "B5", "% soluble aggregate": 2.21}, {"molecule": "B6", "% soluble aggregate": 0.66}]}, {"system": "MDA-MB-231 spheroids", "experiment": "Spheroid assay (3-D growth), MDA-MB-231", "type": "cell-based, human", "settings": "humanised variants 5 μg/ml", "text": "Similar findings were also reported for the Merck anti-N1 mAbs when tested on the LS-1034 cell line. As cell-cell contact is required to activate Notch signalling a spheroid-based 3-D growth model was used to test the ability of the J1 mAbs to block tumour growth. Furthermore, the 3-D model better mimics in vivo conditions including hypoxia and acidosis, allowing evaluation of the mAbs effect in a more realistic setting. Spheroids were generated from MDA-MB-231 breast cancer cells and the ability of different concentrations of the J1-65D mAb to inhibit their growth was evaluated.\nCells were harvested and resuspended in 2.5% Matrigel (BD)-complete DMEM medium. Cell suspension was plated on low-adherence 96-well plates (Corning) (200 μl/well) and spheroids, of approximately fixed cell number (5×10^3 cells for MDA-MB-231 and MDA-MB-468 cell lines; 2×10^3 for MCF7 cells) were then generated by spinning plates at 1800 rpm for 10 minutes. The following day, pictures of the spheroids were taken (day 1) and treatments were added (mAbs were used at 10 μg/ml [5 μg/ml for humanised antibodies] while DBZ was used at the concentration of 100 nM). In some experiments Paclitaxel (1 nM) and Doxorubicin (20 nM) were used in combination with J1-65D mAb treatment. Every 2 days pictures were taken and half of the medium was replaced with fresh one containing mAb/drug. At the end of the experiment, spheroids were either lysed for RNA extraction, were processed and paraffin-embedded for immunohistochemical analysis or were dissociated by pipetting and trypsinization into single cell suspensions for FACS analysis. Spheroid size was evaluated by image analysis using ImageJ software.", "values": [{"molecule": "B1", "spheroid growth inhibition": "slightly reduced ability to inhibit spheroid growth"}, {"molecule": "B2", "spheroid growth inhibition": "most comparable to the parental mAb"}, {"molecule": "B3", "spheroid growth inhibition": "slightly reduced ability to inhibit spheroid growth"}, {"molecule": "B4", "spheroid growth inhibition": "most comparable to the parental mAb"}, {"molecule": "B5", "spheroid growth inhibition": "increasingly less effect"}, {"molecule": "B6", "spheroid growth inhibition": "increasingly less effect"}]}, {"biological_target": "T1, N1 binding to cell surface expressed hJ1 (Homo sapiens, UniProt P78504)", "T1 construct": "cell expressed full length human J1 (hJ1; HEK293 transfectants); expressed in transfected cells; host or cells: HEK293", "T1 sequence (P78504 34-1218)": "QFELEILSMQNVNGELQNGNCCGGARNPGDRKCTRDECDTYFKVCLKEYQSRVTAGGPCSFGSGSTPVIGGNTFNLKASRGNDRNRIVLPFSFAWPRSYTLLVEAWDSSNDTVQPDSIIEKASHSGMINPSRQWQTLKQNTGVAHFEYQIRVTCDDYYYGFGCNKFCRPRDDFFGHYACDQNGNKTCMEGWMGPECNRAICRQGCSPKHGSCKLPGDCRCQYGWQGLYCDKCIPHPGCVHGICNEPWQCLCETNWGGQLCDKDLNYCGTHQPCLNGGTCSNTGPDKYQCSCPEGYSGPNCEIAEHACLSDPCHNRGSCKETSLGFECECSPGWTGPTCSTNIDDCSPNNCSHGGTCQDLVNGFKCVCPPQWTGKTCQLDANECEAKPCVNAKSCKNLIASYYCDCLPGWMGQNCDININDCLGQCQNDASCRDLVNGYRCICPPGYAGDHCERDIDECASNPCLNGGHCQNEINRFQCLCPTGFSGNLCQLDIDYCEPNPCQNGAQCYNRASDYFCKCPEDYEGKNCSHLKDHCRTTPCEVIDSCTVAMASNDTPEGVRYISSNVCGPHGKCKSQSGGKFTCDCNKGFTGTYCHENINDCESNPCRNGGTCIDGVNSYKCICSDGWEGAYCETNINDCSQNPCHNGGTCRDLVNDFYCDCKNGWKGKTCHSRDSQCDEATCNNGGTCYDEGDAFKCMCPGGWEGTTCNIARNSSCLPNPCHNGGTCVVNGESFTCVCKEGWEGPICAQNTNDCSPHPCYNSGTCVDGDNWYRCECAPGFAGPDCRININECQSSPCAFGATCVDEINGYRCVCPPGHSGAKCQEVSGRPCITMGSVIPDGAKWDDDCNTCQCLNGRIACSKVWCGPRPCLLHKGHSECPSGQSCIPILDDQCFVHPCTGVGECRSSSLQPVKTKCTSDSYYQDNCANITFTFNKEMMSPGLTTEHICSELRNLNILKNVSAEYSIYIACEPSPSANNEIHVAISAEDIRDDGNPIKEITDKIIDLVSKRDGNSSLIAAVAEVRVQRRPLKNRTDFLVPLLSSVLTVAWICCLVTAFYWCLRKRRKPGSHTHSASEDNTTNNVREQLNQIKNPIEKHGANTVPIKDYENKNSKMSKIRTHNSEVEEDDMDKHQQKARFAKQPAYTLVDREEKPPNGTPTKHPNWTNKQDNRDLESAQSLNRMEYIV", "experiment": "Notch binding blocking assay (FACS): N1 EGF11-13 beads staining human J1-expressing cells", "parameters": "key: +: Complete blocking; X: No blocking", "settings": "final antibody concentration 0.2 μg/ml", "protocol": "(§1) To functionally identify mAbs with the capacity to disrupt the J1-N1 protein:protein interaction, hybridoma culture supernatants were tested in a FACS-based binding assay. Biotinylated soluble human N1 EGF11-13 recombinant protein was bound to avidin-coated beads and used to stain J1-expressing cells in the presence or absence of each mAb that recognised cell surface hJ1 by FACS. […] The four blocking antibodies of the invention were also able to block the binding of recombinant […] to a biotin-tagged J1 DSL-EGF3 recombinant protein in an ELISA assay (FIG. 1B). […] The four blocking mAbs of the invention were purified from serum-free culture supernatants and equal concentrations of purified antibodies were used to compare their activity in subsequent assays (unless hybridoma supernatant was specified). Sequence conservation across the DSL domain raised the possibility that the J1 mAbs may also be able to bind the Jagged 2 (J2) protein. Antibody binding specificity was initially tested by immunocytochemical labelling of cytospin samples of hJ1 and hJ2 transfectants (FIG. 2). All antibodies stained J1 transfectants but none stained the J2 transfected cells, and J2 expression in the same experiment was confirmed using a commercial anti-J2 antibody. The specificity of the purified mAbs was further investigated in mammalian cells transfected with hJ2, human Delta-like ligand 4 (hDLL4), or mJ1 (FIG. 3). Transfectants were FACS stained with 10 μg/ml of each of the four blocking mAbs.\n(§2) To test the blocking efficiencies of the J1 mAbs, purified mAbs were titrated to determine the concentration required to block recombinant N1 binding to cell surface expressed hJ1. Beads coated with a bacterially-expressed N1 EGF11-13 protein were used to stain the hJ1-expressing cells in the presence of various concentrations of mAbs.\n(§3) The FACS-based binding assay using biotinylated soluble human N1 EGF11-13 recombinant protein bound to avidin-coated fluorescent beads to stain J1-expressing cells was performed using a dilution series of each variant mAb to test their ability to block J1 binding to N1 by FACS (Table 7). […] Thus 12/16 J1-65D1 variants V1-12 and all J1-183D variants have the desired binding and blocking activity.\n(§4) Human N1 EGF11-13 (411-526) was expressed in E. coli, refolded in vitro and labelled with purple fluorescent avidin-coated beads (Spherotech) as previously described. HEK293 cells transfected with human J1 or B16F10 cells transfected with mouse J1 were stained with N1 fluorescent beads in the presence of J1 antibody supernatants or purified antibody (murine, chimeric or humanised) diluted in HBBS/10% FCS. Cells were washed and re-suspended in staining buffer before being analysed with a FACSCalibur and data analysis with CellQuest. HEK293 cells transfected with human Jagged 2 and B16F10 cells transfected with human and mouse DLL4 were stained similarly to test blocking specificity.", "values": [{"molecule": "B1", "Blocking of Notch1 binding to cell surface Jagged 1": "X"}, {"molecule": "B2", "Blocking of Notch1 binding to cell surface Jagged 1": "X"}, {"molecule": "B3", "Blocking of Notch1 binding to cell surface Jagged 1": "X"}, {"molecule": "B4", "Blocking of Notch1 binding to cell surface Jagged 1": "X"}, {"molecule": "B5", "Blocking of Notch1 binding to cell surface Jagged 1": "X"}, {"molecule": "B6", "Blocking of Notch1 binding to cell surface Jagged 1": "X"}]}, {"biological_target": "T1, N1 binding to cell surface expressed hJ1", "experiment": "Notch binding blocking assay (FACS): N1 EGF11-13 beads staining human J1-expressing cells", "parameters": "key: +: Complete blocking; X: No blocking", "settings": "final antibody concentration 0.4 μg/ml", "protocol": "as §1, §2, §3, §4", "values": [{"molecule": "B1", "Blocking of Notch1 binding to cell surface Jagged 1": "+ (Complete blocking)"}, {"molecule": "B2", "Blocking of Notch1 binding to cell surface Jagged 1": "+ (Complete blocking)"}, {"molecule": "B3", "Blocking of Notch1 binding to cell surface Jagged 1": "+ (Complete blocking)"}, {"molecule": "B4", "Blocking of Notch1 binding to cell surface Jagged 1": "+ (Complete blocking)"}, {"molecule": "B5", "Blocking of Notch1 binding to cell surface Jagged 1": "+ (Complete blocking)"}, {"molecule": "B6", "Blocking of Notch1 binding to cell surface Jagged 1": "+ (Complete blocking)"}]}, {"biological_target": "T1, N1 binding to cell surface expressed hJ1", "experiment": "Notch binding blocking assay (FACS): N1 EGF11-13 beads staining human J1-expressing cells", "parameters": "key: +: Complete blocking; X: No blocking", "settings": "final antibody concentration 0.6 μg/ml", "protocol": "as §1, §2, §3, §4", "values": [{"molecule": "B1", "Blocking of Notch1 binding to cell surface Jagged 1": "+ (Complete blocking)"}, {"molecule": "B2", "Blocking of Notch1 binding to cell surface Jagged 1": "+ (Complete blocking)"}, {"molecule": "B3", "Blocking of Notch1 binding to cell surface Jagged 1": "+ (Complete blocking)"}, {"molecule": "B4", "Blocking of Notch1 binding to cell surface Jagged 1": "+ (Complete blocking)"}, {"molecule": "B5", "Blocking of Notch1 binding to cell surface Jagged 1": "+ (Complete blocking)"}, {"molecule": "B6", "Blocking of Notch1 binding to cell surface Jagged 1": "+ (Complete blocking)"}]}, {"biological_target": "T1, N1 binding to cell surface expressed hJ1", "experiment": "Notch binding blocking assay (FACS): N1 EGF11-13 beads staining human J1-expressing cells", "parameters": "key: +: Complete blocking; X: No blocking", "settings": "final antibody concentration 1.0 μg/ml", "protocol": "as §1, §2, §3, §4", "values": [{"molecule": "B1", "Blocking of Notch1 binding to cell surface Jagged 1": "+ (Complete blocking)"}, {"molecule": "B2", "Blocking of Notch1 binding to cell surface Jagged 1": "+ (Complete blocking)"}, {"molecule": "B3", "Blocking of Notch1 binding to cell surface Jagged 1": "+ (Complete blocking)"}, {"molecule": "B4", "Blocking of Notch1 binding to cell surface Jagged 1": "+ (Complete blocking)"}, {"molecule": "B5", "Blocking of Notch1 binding to cell surface Jagged 1": "+ (Complete blocking)"}, {"molecule": "B6", "Blocking of Notch1 binding to cell surface Jagged 1": "+ (Complete blocking)"}]}, {"system": "J1-induced Notch signalling", "experiment": "Luciferase assay, LS174T RBPJ reporter stimulated with J1 protein", "type": "cell-based, human", "settings": "humanised/chimeric mAbs 10 μg/ml, NE3-Fc; DBZ control", "protocol": "FIG. 9. […] (A) The colorectal cancer cell line LS174T expressing luciferase under the control of Notch co-factor RBPJ was stimulated with mammalian cell-expressed soluble J1 proteins (NE3-Fc and NE12-Fc) or a control protein in the presence of J1 mAbs (10 μg/ml), and luciferase activity was measured. […] (C) Breast cancer MDA-MB-231 cells were cultured with J1 mAbs. The expression level of the Notch target gene HES1 was measured by qPCR using β2m as the control gene. In all experiments the γ-secretase inhibitor DBZ was used as a positive control for pan Notch inhibition and a control mAb (IgG2b or IgG1) or no treatment (NT) were negative controls.\nFIG. 20. Inhibition of human Jagged 1/Notch signalling by humanised and de-immunised J1-mAbs in vitro. The colorectal cancer cell line LS174T expressing luciferase under the control of Notch co-factor RbPJ was stimulated with mammalian cell-expressed recombinant J1 protein (NE3-Fc protein, right bar for each treatment) or a control protein (left bar) in the presence of J1 mAbs (10 μg/ml), and luciferase activity was measured. The parental murine monoclonal antibody (Mo), Murine IgG1, DMSO and DBZ were used as controls.\nHaving established that the J1 mAbs were able to block the binding of the J1 ligand to its receptor N1 their effect on the activity of the Notch signalling pathway was investigated. The human colorectal cancer cell line LS174T, stably expressing a luciferase reporter gene under control of Notch co-factor RBPJ, was stimulated with two forms of immobilised J1 protein: N-terminus to EGF3 and N-terminus to EGF12. […] Importantly, the best two J1 mAbs (J1-65D and J1-183D) were also tested against other Notch ligands in order to verify ligand specificity.\nPrior to experiment, clear bottom 96-well plates (CELLSTAR) wells were coated with either J1-ECD fragments (NE3-Fc and NE12-Fc), other Notch-ligands (J2 or DLL4; both from R&D) or control protein (mlgG2b) at the concentration of 5 μg/ml in 0.1% BSA-PBS (overnight incubation at 4° C.). LS174T colorectal cancer cells, expressing the luciferase gene under control of the Notch cofactor RbPJ, were then plated (4×10^4 cells/well) in the presence of different mAbs (10 μg/ml) or DBZ (100 nM). Luciferase activity was then quantified 24 hours later using the Bright-Glo Luciferase Assay System (Promega).", "values": [{"molecule": "B1", "inhibition of J1-induced luciferase activity": "inhibited as effectively as by the parental murine mAb"}, {"molecule": "B2", "inhibition of J1-induced luciferase activity": "inhibited as effectively as by the parental murine mAb"}, {"molecule": "B3", "inhibition of J1-induced luciferase activity": "inhibited as effectively as by the parental murine mAb"}, {"molecule": "B4", "inhibition of J1-induced luciferase activity": "inhibited as effectively as by the parental murine mAb"}]}]}
